The assay addresses Sec61β (dog (endogenous in canine pancreatic microsomes)) (UniProt P60467). In words: cross-linking; BMH on microsomes stripped of ribosomes with EDTA and high salt (EKRM); western blot with anti-Sec62; also with purified canine ribosomes added back. In general terms: A western blot detects proteins with antibodies after separation by electrophoresis.

Bounds are passed on as bounds.

UniProt P60467, sequence (P60467 whole entry): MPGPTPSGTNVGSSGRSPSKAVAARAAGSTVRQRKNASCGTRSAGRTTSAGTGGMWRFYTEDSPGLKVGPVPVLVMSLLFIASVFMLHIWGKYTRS

Consider “Sec62 (from UniProt P82009 1-39) (natural protein)”, for which the percent of Sec62 cross-linked to Sec61β is > 50%.
